# Laboratory results published in the supplement of paper PMC10567573.
# B1: FCHO1 (parent)
# chain: FSDPSQSDPETKDFWLNMAALTEA
# Variants of: B1
# Test: protein stability index of a GFP-peptide fusion (GPS, HEK-293T) (PSI 1-6); higher = more stable
# Settings: c terminus: a fixed tail appended
# 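Also: lentivirally expressed fusions sorted by FACS into six bins by GFP to DsRed ratio, PSI derived from sequencing read proportions per bin multiplied by bin number.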
row,Variant,protein stability index
1,FSDPSQSDPETFDFWLNMAALTEA [K12F],2.6
2,FSDPSQSDPETLDFWLNMAALTEA [K12L],2.62
3,FSDPSQSDPETGDFWLNMAALTEA [K12G],3.23
4,FSDPSQSDPETTDFWLNMAALTEA [K12T],3.15
5,FSDPSQSDPETSDFWLNMAALTEA [K12S],3.26
6,FSDPSQSDPETDDFWLNMAALTEA [K12D],4.39
7,FSDPSQSDPETIDFWLNMAALTEA [K12I],3.11
8,FSDPSQSDPETVDFWLNMAALTEA [K12V],2.86
9,FSDPSQSDPETWDFWLNMAALTEA [K12W],2.52
10,FSDPSQSDPETNDFWLNMAALTEA [K12N],3.66
11,FSDPSQSDPETMDFWLNMAALTEA [K12M],3.07
12,FSDPSQSDPETQDFWLNMAALTEA [K12Q],3.43
13,FSDPSQSDPETCDFWLNMAALTEA [K12C],3.04
14,FSDPSQSDPETYDFWLNMAALTEA [K12Y],2.97
15,FSDPSQSDPETADFWLNMAALTEA [K12A],3.25
16,FSDPSQSDPETEDFWLNMAALTEA [K12E],3.6
17,FSDPSQSDPETRDFWLNMAALTEA [K12R],2.65
18,FSDPSQSDPETPDFWLNMAALTEA [K12P],3.1
19,FSDPSQSDPETHDFWLNMAALTEA [K12H],3.2
20,FSDPSQSDPETKDRWLNMAALTEA [F14R],4.62
21,FSDPSQSDPETKDVWLNMAALTEA [F14V],4.01
22,FSDPSQSDPETKDYWLNMAALTEA [F14Y],3.98
23,FSDPSQSDPETKDAWLNMAALTEA [F14A],4.17
24,FSDPSQSDPETKDNWLNMAALTEA [F14N],4.76

row,Variant,protein stability index
1,FSDPSQSDPETKDSWLNMAALTEA [F14S],4.78
2,FSDPSQSDPETKDEWLNMAALTEA [F14E],4.99
3,FSDPSQSDPETKDWWLNMAALTEA [F14W],3.87
4,FSDPSQSDPETKDHWLNMAALTEA [F14H],4.51
5,FSDPSQSDPETKDDWLNMAALTEA [F14D],4.88
6,FSDPSQSDPETKDCWLNMAALTEA [F14C],4.11
7,FSDPSQSDPETKDKWLNMAALTEA [F14K],4.72
8,FSDPSQSDPETKDPWLNMAALTEA [F14P],4.58
9,FSDPSQSDPETKDTWLNMAALTEA [F14T],4.57
10,FSDPSQSDPETKDQWLNMAALTEA [F14Q],4.75
11,FSDPSQSDPETKDIWLNMAALTEA [F14I],3.61
12,FSDPSQSDPETKDGWLNMAALTEA [F14G],4.83
13,FSDPSQSDPETKDLWLNMAALTEA [F14L],3.69
14,FSDPSQSDPETKDMWLNMAALTEA [F14M],4.12
15,FSDPSQSDPVTKDFWLNMAALTEA [E10V],2.63
16,FSDPSQSDPTTKDFWLNMAALTEA [E10T],2.12
17,FSDPSQSDPRTKDFWLNMAALTEA [E10R],2.29
18,FSDPSQSDPITKDFWLNMAALTEA [E10I],2.45
19,FSDPSQSDPATKDFWLNMAALTEA [E10A],2.5
20,FSDPSQSDPQTKDFWLNMAALTEA [E10Q],2.54
21,FSDPSQSDPNTKDFWLNMAALTEA [E10N],1.9
22,FSDPSQSDPSTKDFWLNMAALTEA [E10S],2.2
23,FSDPSQSDPKTKDFWLNMAALTEA [E10K],2.04
24,FSDPSQSDPMTKDFWLNMAALTEA [E10M],1.94

row,Variant,protein stability index
1,FSDPSQSDPWTKDFWLNMAALTEA [E10W],1.83
2,FSDPSQSDPYTKDFWLNMAALTEA [E10Y],2.14
3,FSDPSQSDPGTKDFWLNMAALTEA [E10G],2.03
4,FSDPSQSDPCTKDFWLNMAALTEA [E10C],2.06
5,FSDPSQSDPFTKDFWLNMAALTEA [E10F],1.94
6,FSDPSQSDPDTKDFWLNMAALTEA [E10D],3
7,FSDPSQSDPHTKDFWLNMAALTEA [E10H],1.97
8,FSDPSQSDPPTKDFWLNMAALTEA [E10P],2.66
9,FSDPSQSDPLTKDFWLNMAALTEA [E10L],2.33
10,FSDPSQSDPETKDFWLKMAALTEA [N17K],2.91
11,FSDPSQSDPETKDFWLRMAALTEA [N17R],3.06
12,FSDPSQSDPETKDFWLSMAALTEA [N17S],2.49
13,FSDPSQSDPETKDFWLFMAALTEA [N17F],1.82
14,FSDPSQSDPETKDFWLYMAALTEA [N17Y],2.8
15,FSDPSQSDPETKDFWLEMAALTEA [N17E],3.49
16,FSDPSQSDPETKDFWLDMAALTEA [N17D],1.85
17,FSDPSQSDPETKDFWLGMAALTEA [N17G],2.67
18,FSDPSQSDPETKDFWLLMAALTEA [N17L],2.43
19,FSDPSQSDPETKDFWLTMAALTEA [N17T],3.03
20,FSDPSQSDPETKDFWLPMAALTEA [N17P],1.94
21,FSDPSQSDPETKDFWLCMAALTEA [N17C],2.41
22,FSDPSQSDPETKDFWLAMAALTEA [N17A],2.56
23,FSDPSQSDPETKDFWLMMAALTEA [N17M],2.73
24,FSDPSQSDPETKDFWLQMAALTEA [N17Q],3.39

row,Variant,protein stability index
1,FSDPSQSDPETKDFWLWMAALTEA [N17W],2.49
2,FSDPSQSDPETKDFWLVMAALTEA [N17V],1.88
3,FSDPSQSDPETKDFWLHMAALTEA [N17H],2.74
4,FSDPSQSDPETKDFWLIMAALTEA [N17I],1.98
5,FSDPSQSDPETKDFNLNMAALTEA [W15N],4.79
6,FSDPSQSDPETKDFFLNMAALTEA [W15F],4.3
7,FSDPSQSDPETKDFILNMAALTEA [W15I],4.43
8,FSDPSQSDPETKDFDLNMAALTEA [W15D],5.32
9,FSDPSQSDPETKDFVLNMAALTEA [W15V],4.77
10,FSDPSQSDPETKDFRLNMAALTEA [W15R],4.68
11,FSDPSQSDPETKDFCLNMAALTEA [W15C],4.62
12,FSDPSQSDPETKDFTLNMAALTEA [W15T],4.38
13,FSDPSQSDPETKDFGLNMAALTEA [W15G],4.65
14,FSDPSQSDPETKDFMLNMAALTEA [W15M],4.48
15,FSDPSQSDPETKDFQLNMAALTEA [W15Q],4.45
16,FSDPSQSDPETKDFALNMAALTEA [W15A],4.88
17,FSDPSQSDPETKDFLLNMAALTEA [W15L],4.59
18,FSDPSQSDPETKDFKLNMAALTEA [W15K],4.85
19,FSDPSQSDPETKDFELNMAALTEA [W15E],4.68
20,FSDPSQSDPETKDFSLNMAALTEA [W15S],4.82
21,FSDPSQSDPETKDFYLNMAALTEA [W15Y],4.38
22,FSDPSQSDPETKDFPLNMAALTEA [W15P],4.66
